In patent US20090131309A1, “ICA512 COUPLES INSULIN SECRETION AND GENE EXPRESSION IN BETA-CELLS” (Technische Universität Dresden Medizinizche Fakultät Carl …, priority 2004, published 2009):

How the values were obtained:
[1] = test system: GLE of the rat insulin I gene promoter; assay: Chromatin immunoprecipitation, GLE of rat insulin I gene promoter; format: binding; details: stable INS-1 cells, anti-GFP antibodies vs control IgG
STAT5b [2] = assay: Nuclear levels of STAT5b, PY-STAT5 and STAT3 in INS-1 cells (immunoblot); format: cell-based, rat
Method: (§1) Culture of INS-1 cells. INS-1 cells were grown as described^27. In some instances cells were pre-incubated for 1 hour in resting buffer (0 mM glucose, 5 mM KCl) and then for 2 or 6 hours in resting or stimulating (25 mM glucose, 55 mM KCl) buffers as described^7. Calpeptin (Calbiochem) was added in the last 15 minutes of the pre-incubation, and then for the entire following period before cells were harvested. Cells were stimulated with 20 nM human growth hormone (hGH) for 20 minutes following 18 hours incubation in low serum medium (LSM) containing RPMI-1640, 11 mM glucose, 0.5% FBS 25 mM HEPES, 1% penicillin-streptomycin and 0.05 mM β-mercaptoethanol. After washing, cells were either harvested or incubated in LSM for 6 additional hours. For immunoprecipitation cells were collected 1 hour after stimulation with hGH.
Cell extracts and western blotting. INS-1 cells and pancreatic islets were harvested at 4° C. in RIPA buffer [50 mM Tris-HCl at pH 8.0, 150 mM NaCl, 1% NP-40, 0.1% SDS, 0.5% sodium deoxycholate, and 1× protease inhibitor cocktail (Sigma)] to obtain total extracts. Insoluble material was removed by centrifugation. […] Chemiluminescence was developed using the Supersignal West Pico or Femto kits (Pierce) and detected with a LAS 3000 Bioimaging System (Fuji). Protein signals were quantified with the Image Gauge v3.45 software (Fuji). […]

Insulin mRNA = Insulin mRNA levels by real-time PCR in INS-1 cells; format: cell-based, rat
Method: Time-course stimulation of INS-1 cells. INS-1 ceils were incubated for 1 hr. in resting buffer (2.8 mM glucose and 5 mM KCl), then for 6 hrs. in resting or stimulating buffer, with or without 40 μM calpeptin, and then again in resting buffer for up to 24 hrs. Total RNA for real-time PCR was collected at time 0, 2 and 6 hrs. during stimulation and at 2, 6, 12 and 24 hrs. during the following resting period.
Real-time PCR. Total RNA from INS-1 cells was isolated with Trizol (Invitrogen, Karlsruhe, Germany) according to the manufacturer's protocol. 1 μg of total RNA was used for the reverse transcriptase reaction, with 2 μM specific antisense primers for […] and insulin, as described (31). mRNA expression was measured by quantitative real-time PCR using the Brilliant SYBR Green QPCR (Stratagene, La Jolla, Calif.) with an Mx4000 Multiplex Quantitative Real Time PCR System (Stratagene).

pro-ICA512 = assay: Immunoblot for pro-ICA512 and ICA512-TMF in INS-1 cells; format: cell-based, rat
Method: as §1
Cell extracts and western blotting. INS-1 cells and pancreatic islets were harvested at 4° C. in RIPA buffer [50 mM Tris-HCl at pH 8.0, 150 mM NaCl, 1% NP-40, 0.1% SDS, 0.5% sodium deoxycholate, and 1× protease inhibitor cocktail (Sigma)] to obtain total extracts. Insoluble material was removed by centrifugation. Cytosolic and nuclear extracts were prepared using the NE-PER Nuclear and Cytoplasmic Extraction Reagents (Pierce). Proteins were separated by 8-10% SDS-PAGE and immunoblotted with the following antibodies: mouse monoclonals anti-ICA512^7, anti-STAT5 (Santa Cruz), anti-γ-tubulin and anti-HA (Sigma); rabbit anti-PY-STAT5 and anti-STAT3 (Cell Signaling); affinity purified goat anti-GFP IgGs. Chemiluminescence was developed using the Supersignal West Pico or Femto kits (Pierce) and detected with a LAS 3000 Bioimaging System (Fuji). Protein signals were quantified with the Image Gauge v3.45 software (Fuji). Half the amount of nuclear extract proteins were immunoblotted relative to total and cytosolic extract proteins.

INS-1 cells = assay: Uridine incorporation in INS-1 cells; format: cell-based, rat; details: relative to GFP-transfected INS-1 cells
STAT5b [3] = molecular target: T1, STAT5b (Rattus norvegicus, UniProt P52632); assay: Co-immunoprecipitation with anti-GFP antibodies from INS-1 extracts; format: binding; details: hGH-stimulated INS-1 cells
T1 construct: endogenous in cells; host or cells: INS-1 cells transiently transfected with ICA512-CCF-GFP
T1 sequence (P52632 1-786): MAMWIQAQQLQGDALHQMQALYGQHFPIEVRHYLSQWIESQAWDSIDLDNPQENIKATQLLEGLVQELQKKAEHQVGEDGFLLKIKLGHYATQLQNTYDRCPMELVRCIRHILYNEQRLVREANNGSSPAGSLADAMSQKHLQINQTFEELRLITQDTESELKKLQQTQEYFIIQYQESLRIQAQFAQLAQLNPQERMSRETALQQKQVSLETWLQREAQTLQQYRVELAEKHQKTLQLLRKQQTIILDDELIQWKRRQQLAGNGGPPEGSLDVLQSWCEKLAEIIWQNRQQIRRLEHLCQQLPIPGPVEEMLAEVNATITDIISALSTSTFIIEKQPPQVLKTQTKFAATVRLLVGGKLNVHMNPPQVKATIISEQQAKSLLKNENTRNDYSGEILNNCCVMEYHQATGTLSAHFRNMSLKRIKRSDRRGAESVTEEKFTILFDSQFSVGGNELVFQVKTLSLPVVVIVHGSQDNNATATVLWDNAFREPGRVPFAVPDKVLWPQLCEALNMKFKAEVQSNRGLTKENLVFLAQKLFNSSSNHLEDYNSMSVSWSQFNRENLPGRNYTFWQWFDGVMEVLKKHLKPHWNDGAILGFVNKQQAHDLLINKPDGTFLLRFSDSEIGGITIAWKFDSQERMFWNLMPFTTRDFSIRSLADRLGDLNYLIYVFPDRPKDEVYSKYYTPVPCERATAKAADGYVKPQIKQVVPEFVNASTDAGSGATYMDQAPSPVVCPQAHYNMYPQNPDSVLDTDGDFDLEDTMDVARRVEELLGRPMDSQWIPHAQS
Method: Immunoprecipitation. INS-1 cells were transiently transfected With one or more of the following constructs: GFP, ICA512-CCF-GFP, ICA512-CCF(K/A^754)-GFP, SUMO-1 and HA-SUMO-1. Anti-GFP IgGs were used for immunoprecipitations from total or cytosolic extracts. Immunoprecipitates were immunoblotted with anti-STAT5b, anti-PY-STAT5, anti-GFP or anti-HA antibodies. 600 μg and 200 μg protein were used as starting material for immunopreciptation of sumoylated ICA512 and STAT5, respectively.

STAT5 = assay: Firefly luciferase reporter assay for STAT activity (8GLE-CAS-FL) in INS-1 cells; format: cell-based, rat; details: co-transfected INS-1 cells, hGH stimulation
Method: Firefly luciferase assays. INS-1 cells were co-transfected with 8GLE-CAS-FL and one or two of the following plasmids: pEGFP, ICA512-CCF-GFP, ICA512-CCF(K/A^754)-GFP and PIASy-GFP. Two days after transfection, cells were incubated in low serum medium for 18 hrs, then stimulated with 20 nM hGH for 20 minutes, and finally left in resting buffer for 6 additional hours. Cells were harvested in 500 μl lysis reagent for luciferase assays (Promega) and 10 μl were used for measurement of luciferase activity in a Berthold luminometer. Each sample was performed in triplicate and the data represent the mean of at least 2 independent experiments.

ICA512 mRNA = ICA512 mRNA by real-time PCR in INS-1 cells; format: cell-based, rat; details: transfected INS-1 cells vs cells expressing GFP alone
Method: PCR and real-time PCR. Cytosolic mRNA was isolated with the Oligotex Direct mRNA kit (Qiagen) according to the manufacturer's protocol. PolyA^+-enriched RNA was reverse transcribed with specific antisense primers for ICA512 and β-actin as described^8. Amplification of a 200 bp fragment flanking the GLE in the rat insulin1 (rINS1) gene promoter by PCR and real-time PCR was performed with the following primers: sense [NT], antisense [NT]. Amplification of ICA512 and β-actin was performed as described^16.

GLE of rat insulin 1 = assay: EMSA with biotinylated GLE oligonucleotide of rat insulin 1 promoter; format: binding; details: nuclear extracts of INS-1 cells expressing increasing amount of construct

co-immunoprecipitation of STAT5b and PY-STAT5 (STAT5b [3]): co-immunoprecipitated
binding of a factor, conceivably STAT5b, to the GLE oligonucleotide (GLE of rat insulin 1): positive correlation
B1: ICA512-CCF-GFP: ICA512 cytoplasmic fragment generated by μ-calpain, residues 659-979, fused at its C-terminus with GFP (protein)
chain: SQFSDAAQASPSSHSSTPSWCEEPAQANMDISTGHMILAYMEDHLRNRDRLAKEWQALCAYQAEPNTCATAQGEGNIKKNRHPDFLPYDHARIKLKVESSPSRSDYINASPIIEHDPRMPAYIATQGPLSHTIADFWQMVWESGCTVIVMLTPLVEDGVKQCDRYWPDEGASLYHVYEVNLVSEHIWCEDFLVRSFYLKNVQTQETRTLTQFHFLSWPAEGTPASTRPLLDFRRKVNKCYRGRSCPIIVHCSDGAGRTGTYILIDMVLNRMAKGVKEIDIAATLEHVRDQRPGLVRSKDQFEFALTAVAEEVNAILKALPQ
modifications: left off: large carriers
notes: ICA512 cytoplasmic fragment generated by μ-calpain, residues 659-979, fused at its C-terminus with GFP
co-immunoprecipitation of GLE of the rat insulin I gene promoter [1]: co-immunoprecipitated with anti-GFP antibodies
STAT5b and STAT3 in the nucleus (STAT5b [2]; INS-1 cells transfected with increasing amount of construct): dose-dependent increase
Nuclear STAT5b and nuclear PY-STAT5 (STAT5b [2]; hGH 20 nM 20 min, ICA512-CCF-GFP vs GFP cells, AD/DA mutant vs ICA512-CCF-GFP cells): clearly increased
insulin mRNA levels vs amount of construct expressed (Insulin mRNA; 0.5-4 μg construct, 4 days in culture with 11 mM glucose): correlation between the increased expression of ICA512 (659-979)-GFP and the enhancement of insulin mRNA levels
Insulin mRNA increase (Insulin mRNA; resting INS-1 cells transiently transfected, vs electroporated cells): 93%
further increase of insulin mRNA by stimulation (Insulin mRNA; stimulated transfected INS-1 cells): 60%
ICA512-TMF levels (pro-ICA512; transfected INS-1 cells vs GFP): also increased
pro-ICA512 increase (pro-ICA512; transfected INS-1 cells vs cells expressing GFP alone): 40%
total incorporation of 3H-uridine (INS-1 cells): 270%
STAT5 transcription activity (8GLE-CAS-FL luciferase) (STAT5): partially restored
ICA512 mRNA increase (ICA512 mRNA): 81%
